B1: Full-length mouse MANF (wild-type) (natural protein)
chain: LRPGDCEVCISYLGRFYQDLKDRDVTFSPATIEEELIKFCREARGKENRLCYYIGATDDAATKIINEVSKPLAHHIPVEKICEKLKKKDSQICELKYDNQIDLSTVDLKKLRVKELKKILDDWGEMCKGCAEKSDYIRKINELMPKYAPKAASARTDL
B2: biotinylated AviTag-BiP^19–413 (NBD) (domain or fragment)
chain: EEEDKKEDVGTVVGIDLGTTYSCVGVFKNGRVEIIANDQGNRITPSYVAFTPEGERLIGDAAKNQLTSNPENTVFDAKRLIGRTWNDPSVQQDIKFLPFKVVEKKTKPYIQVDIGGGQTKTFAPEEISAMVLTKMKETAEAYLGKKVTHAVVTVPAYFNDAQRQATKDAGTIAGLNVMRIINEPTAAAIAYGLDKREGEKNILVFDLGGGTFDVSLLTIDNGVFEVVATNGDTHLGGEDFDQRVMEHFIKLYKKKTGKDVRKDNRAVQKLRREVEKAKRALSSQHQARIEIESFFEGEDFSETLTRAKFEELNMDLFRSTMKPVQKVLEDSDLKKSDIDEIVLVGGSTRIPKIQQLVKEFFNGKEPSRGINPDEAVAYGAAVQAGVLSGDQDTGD
modifications: biotin (on the AviTag, by E. coli BirA)

Experiments:
[1] = molecular target: B2; experiment: BLI; steady-state K1/2 max
[2] = molecular target: B1; experiment: BLI; K1/2 max, steady state

Binder | Kd [1] | Kd [2]
B1 | 13.9 µM | –
TVDLKKLRVKELKKILDDWGEMCKGCAEKSDYIRKINELMPKYA (domain or fragment) [SAP domain (126-169)] | 10.3 µM | –
B2 | – | 16 µM

— PMC6358605 (2019)
